Experimental data as given in patent publication US20160177307.

What was measured:
[1] = tested on: T1, VEGF-121 (Homo sapiens), P15692-9; assay: filter
T1 sequence: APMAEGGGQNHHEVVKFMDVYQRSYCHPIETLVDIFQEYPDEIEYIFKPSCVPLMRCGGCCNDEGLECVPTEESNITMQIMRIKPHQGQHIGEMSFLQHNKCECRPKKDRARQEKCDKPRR

[2] = target: PDGF-BB (platelet-derived growth factor BB) (Homo sapiens) (UniProt P01127); assay: filter
Sequence of PDGF-BB (platelet-derived growth factor BB) (Homo sapiens) (P01127 82-190): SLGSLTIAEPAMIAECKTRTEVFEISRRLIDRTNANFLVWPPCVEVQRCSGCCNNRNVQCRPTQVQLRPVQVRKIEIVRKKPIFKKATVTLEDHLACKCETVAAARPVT

AGCCGTTAAGTGCTTGTAGGATTTAAATGGA [4867-31_97]
Kd ([1]; P=Nap-dU, C3 spacer at 8): 7.3 nM

AGCCGTTAAGTGCTTGTAGGATTTAAATGGA [4867-31_101]
Kd ([1]; P=Nap-dU): 5.89 nM

AGCCGTTCAAGTGCTTGTAGATTTAAATGGA [4867-31_99]
Kd ([1]; P=Nap-dU, C3 spacer at 20): 0.22 nM

AGCCGTTCAAGTGCTTGTAGGATTTAAATGGA [4867-31_66]
Kd ([1]; P=Nap-dU, 2'-OMe G2): 0.17 nM

AGCCGTTCAAGTGCTTGTAGGATTTAAATGGA [4867-31_67]
Kd ([1]; P=Nap-dU, 2'-OMe C3 (inferred, superscript lost)): 0.33 nM

AGCCGTTCAAGTGCTTGTAGGATTTAAATGGA [4867-31_68]
Kd ([1]; P=Nap-dU, 2'-OMe C4 (inferred, superscript lost)): 7.55 nM

AGCCGTTCAAGTGCTTGTAGGATTTAAATGGA [4867-31_72]
Kd ([1]; P=Nap-dU, 2'-OMe C8 (inferred, superscript lost)): 0.21 nM

AGCCGTTCAAGTGCTTGTAGGATTTAAATGGA [4867-31_73]
Kd ([1]; P=Nap-dU, 2'-OMe A9): 5.99 nM

AGCCGTTCAAGTGCTTGTAGGATTTAAATGGA [4867-31_74]
Kd ([1]; P=Nap-dU, 2'-OMe A10): 3.14 nM

AGCCGTTCAAGTGCTTGTAGGATTTAAATGGA [4867-31_75]
Kd ([1]; P=Nap-dU, 2'-OMe G11): 0.15 nM

AGCCGTTCAAGTGCTTGTAGGATTTAAATGGA [4867-31_76]
Kd ([1]; 2'-OMe-U at 12 in place of NapdU, other P are NapdU, 2'-OMe-U for NapdU): 22.9 nM

AGCCGTTCAAGTGCTTGTAGGATTTAAATGGA [4867-31_77]
Kd ([1]; P=Nap-dU, 2'-OMe G13): 6.64 nM

AGCCGTTCAAGTGCTTGTAGGATTTAAATGGA [4867-31_78]
Kd ([1]; P=Nap-dU, 2'-OMe C14): 0.24 nM

AGCCGTTCAAGTGCTTGTAGGATTTAAATGGA [4867-31_81]
Kd ([1]; P=Nap-dU, 2'-OMe G17): 0.44 nM

AGCCGTTCAAGTGCTTGTAGGATTTAAATGGA [4867-31_83]
Kd ([1]; P=Nap-dU, 2'-OMe A19): 0.1 nM

AGCCGTTCAAGTGCTTGTAGGATTTAAATGGA [4867-31_84]
Kd ([1]; P=Nap-dU, 2'-OMe G20): 0.21 nM

AGCCGTTCAAGTGCTTGTAGGATTTAAATGGA [4867-31_85]
Kd ([1]; P=Nap-dU, 2'-OMe G21): 25.8 nM

TTACGTTACACGCGTTTATAGCG [4149-8_348]
Kd ([2]; Bn-dU, Pe-dU17, 2'-F A9, Heg, 2'-OMe): > 10 nM

TTACGTTACACGCGTTTATAGCG [4149-8_350]
Kd ([2]; Bn-dU, Pe-dU17, 2'-F C10, Heg, 2'-OMe): > 10 nM

TTACGTTACACGCGTTTATAGCG [4149-8_351]
Kd ([2]; Bn-dU, Pe-dU17, 2'-F C14, Heg, 2'-OMe): > 10 nM

TTACGTTACACGCGTTTATAGCG [4149-8_364]
Kd ([2]; Bn-dU, dT8, Heg5, 2'-OMe A3, A11, A21, G24): > 10 nM

TTACGTTACACGCGTTTATAGCGNT [4149-8_339]
Kd ([2]; 4149-8_260 3'-3' dimer, C3, doubler): 0.0062 nM

TTACGTTACACGCGTTTATAGCGNT [4149-8_340]
Kd ([2]; 4149-8_260 3'-3' dimer, Heg, doubler): 0.0189 nM

TTACGTTACACGCGTTTATAGCGNT [4149-8_341]
Kd ([2]; 4149-8_260 3'-3' dimer, 2 Heg, doubler): 0.0272 nM

TTACGTTACACGCGTTTATAGCGNT [4149-8_342]
Kd ([2]; 4149-8_260 3'-3' dimer, 3 Heg, doubler): 0.0181 nM

TTACGTTACCGCGTTTATAGCG [4149-8_379]
Kd ([2]; BndU at 1,8,16,17,20, MBndU at 2, Heg at 5, C3 at 11, 2'-OMe at A3,C12,A19,A21,G24 and 2'-OMe-BnU at 7,18, Table 30 gives 1.6E-11, Table 31 5.2E-11): 0.02 nM

TTACGTTACCGCGTTTATAGCG [4149-8_391]
Kd ([2]; BndU, PS 9,15, 2'-OMe, Heg 5, C3 11): 0.012 nM

TTACGTTACCGCGTTTATAGCG [4149-8_418]
Kd ([2]; as 4149-8_379, 2'-OMe 15): 0.21 nM

TTACGTTACCGCGTTTATAGCG [4149-8_419]
Kd ([2]; as 4149-8_379, 2'-OMe 15, NapdU 16): 1.3 nM

TTACGTTACCGCGTTTATAGCG [4149-8_420]
Kd ([2]; as 4149-8_379, 2'-OMe 15, iBudU 16): 1.4 nM

TTACGTTACCGCGTTTATAGCG [4149-8_421]
Kd ([2]; as 4149-8_379, 2'-OMe 13): 0.019 nM

TTACGTTACCGCGTTTATAGCG [4149-8_422]
Kd ([2]; as 4149-8_379, 2'-OMe 13,15): 0.27 nM

TTACGTTACCGCGTTTATAGCG [4149-8_423]
Kd ([2]; as 4149-8_379, 2'-OMe 13, NapdU 16): 0.033 nM

TTACGTTACCGCGTTTATAGCG [4149-8_424]
Kd ([2]; as 4149-8_379, 2'-OMe 13,14): 6.6 nM

TTACGTTACCGCGTTTATAGCG [4149-8_425]
Kd ([2]; as 4149-8_379, 2'-OMe 9): 0.91 nM

TTACGTTACCGCGTTTATAGCG [4149-8_426]
Kd ([2]; as 4149-8_379 plus 2'-OMe A9,G13 or G15 as printed in SEQ:409): 42 nM

TTACGTTACCGCGTTTATAGCG [4149-8_431]
Kd ([2]; as 4149-8_379, NapdU 16, PS 9,15,17): 0.043 nM

TTACGTTACCGCGTTTATAGCG [4149-8_432]
Kd ([2]; as 4149-8_379, PS 9,15,17): 0.029 nM

TTACGTTACCGCGTTTATAGCG [4149-8_433]
Kd ([2]; as 4149-8_379, NapdU 16, PS 9,15): 0.066 nM

TTACGTTACCGCGTTTATAGCG [4149-8_434]
Kd ([2]; as 4149-8_379, PS 9,15): 0.032 nM

TTACGTTACCGCGTTTATAGCG [4149-8_435]
Kd ([2]; as 4149-8_379, BndU 2, NapdU 16, PS 9,15,17): 0.016 nM

TTACGTTACCGCGTTTATAGCG [4149-8_436]
Kd ([2]; as 4149-8_379, BndU 2, PS 9,15,17): 0.0077 nM

TTACGTTACCGCGTTTATAGCG [4149-8_437]
Kd ([2]; as 4149-8_379, BndU 2, NapdU 16, PS 9,15): 0.0074 nM

TTACGTTACCGCGTTTATAGCG [4149-8_453]
Kd ([2]; BndU, NapdU 16, 2'-OMe 3,7,12,13,18,19,21,24, PS 9,15,16,17, Heg 5, C3 11): 0.002 nM

TTACGTTACCGCGTTTATAGCG [4149-8_454]
Kd ([2]; BndU at 1,2,8,17,20, NapdU at 16, Heg 5, C3 11, 2'-OMe at 3,7,12,18,19,21,24, PS 3' of 9,15,16,17, 3'-idT): 0.0013 nM

TTACGTTACCGCGTTTATAGCG [4149-8_455]
Kd ([2]; BndU, NapdU 16, 2'-OMe 3,7,12,13,18,19,21,24, PS 8,9,15,16,17, Heg 5, C3 11): 0.017 nM

TTACGTTACCGCGTTTATAGCG [4149-8_456]
Kd ([2]; BndU, NapdU 16, 2'-OMe 3,7,12,18,19,21,24, PS 8,9,15,16,17, Heg 5, C3 11): 0.027 nM

TTACGTTACGCGTTTATAGCG [4149-8_304]
Kd ([2]; Bn-dU, C3 linkers, 2'-OMe): > 10 nM

TTCGACTACGTTACACGCGTTTATAGCG [4149-8_66]
Kd ([2]; Bn-dU, C3 at 3): > 10 nM
